Laboratory results: a protein production outcome set (Wang et al. 2014)

Assay: label from the status in PepcDB records

Sequence	protein production
MIKERPKFNWLHLLIFIVVVEAIGSLSAWLAGDIKAVYNGLNLPVLSPPDGLFGIVWPILYALIAIAGYLVFQQATTHRDRLMDATLFGIQLLLNFIWSIIFFSQSAYWWGLVIIIVLDLVVLLCILRFYRSSRLAAILMVPYLVWICFATYLTLGVALLN	failed
MIKHESSQPLRVAVAQCRIDWEDKHANLRRMERLAEETAGMADVLFFPEMMTTGFSMNVQALAEPFEEGETIMSLKRVTARHGLALSATMAVRENGKFYNRAYFVTPEGEVFHQDKRHLFRVGGEHEVMTPAQERRIFNY	failed
MIKKARKFIPFFLIGSLLAEDNGWYMSVGYQIGGTQQFINNKQLLENQNIINSVTQSAINIAGPTTGLITLSSQTVIDALGYGVSNTVGNQLEGISNILNQIGKRKDFYSSRQISSISQQIIGLKGSSDPLKAHSSQITAKLLSNTQSAFDQGIALSTNIISSINSLNPSNNTQEVKKQLQNTAQSMTELLQQIEHSITKTTSTTYAQSLLSNLTDAVNASSNNTAYVSALVNALNTLGVGVFPTTTTTHVVLNPPGQVVFYPTNSILGSTSSNSNNQQQYNNTLLMNTLQGTLSANTQNNPNGCANQVQCLEQFIQNLAPLAATPTSNNQANQQVQAIAQKLQSVAINTLDNNAINNTTYNLNNLHNALNFQAYESTIEQYNNALKQISWISFTEPKNLLKNTSNNYQIGTVTNAQGQNISAYDCMTATGSLSSNASSGISCSATSSTSSTNSFDNSLVATSKVQTINGKEQIGVNSFNLVSQVWSVYNSLKTSEENLQKNANILCANGTQSGTSSCNSSSGGLSISGNAQLQNILSPTSGTTTNTQAKSNAPKLKAMVVVNNEEEAKTANLAQSSGTTTQSPNSTVMGALNTVLQNVSNFQQSIQNAFQNQESNIQAWANAIYNTNGSQSQEMTPNNNQDLRIQLRANFYQLINTINQQVPTDMNALINQSQQTQQTSGSASNNNACASGMSGSNGNWCYQQWSDSKAYYSGLQSALGYQTQATTQSGSNGGNSITYNVQQITLTSNGLLNQIITNLKSVNGGNGASGTGSGNGTSQINTAYQMLTDASDGKLGTYSSSSGSNNGYTPCNSTNGSNKTSGNNCYEPNKQQNATTATATTDSNLQKVYNDAQKIANIIASSGNNKGVENGLKQFFEALKNNSSSLSNLCGNGSSGSSGTTCSGWLINLLGAIPTNGVSDTNNLINLLTEFIKTAGFIQNNDSSVSTSLTSAFQAITSAISQGFQALQNDISPNAILTLLQEITSNTTTIQSFSQTLRQLLGDKTFFMAQQKLIDAMINARNQVQNAQNQANNYGSQPVLSQYAAAKSTQHGMSNGLGVGLGYKYFFGKARKLGLRHYFFFDYGFSEIGLANQSVKANIFAYGVGTDFLWNLFRRTYNTKALNFGLFAGVQLGGATWLSSLRQQIIDNWGSANDIHSTNFQVALNFGVRTNFAEFKRFAKKFHNQGVISQKSVEFGIKVPLINQAYLNSAGADVSYRRLYTFYINYIMGF	failed
MIKKIHRWLPLLVLIGLLVLFFSLHLDKYLSFNALRENHALLIAWTQTHYFIAPLIFIVFYTTAVAISIPGAVLLTLTGGFLFGVFWGVLFVVISATLGATILFFAVRTALGDWFAQKASGWIERMRQGFQHNAFSYLVTLRLIPLFPFWAVNIVPALLNIRAKTFITATFIGIIPGTTVYVMVGNGLSQIFAANQTPNLGIIFELQILGPLLALAVLSLMPVLYQFSTRKHQNHHSFSDISRVINCDLAIIGGGAGGLSLASGCSQLGLKVVLVESGKMGGDCLNYGCIPSKSLLAAAKTFYYAKHATHFGVHTEAIKINFQQVMQHVHQIIDNISEHDSVQRFESLGVQVIKQVGKFLNPDTLQAGDSIIKAKRFVVATGSSPFIPPIPGLDAVSYFTNETIFDLKEQPEHLIVIGGGPIGCELAQAFAMLGSKVTLLEGLNLLPKDDPDCVAVLRTQMKSMSIVIHEQIEITQINSHPDTGISVCFEFQNTQFTITASHLLIATGRRANVKPLDLEKAGVKLTSKGVEVNKYLQTSNKKIYALGDVTGLYQFTHMASYQASIVLRNIVFKLPSKVDYRAIPWVTYTDPELAHVGIGVSDALKHPDAQIIEWPFVDNDRAQTERSLNGKIKIITDKKARILGVTIVGPHAGELILPWVMAIREKKNLRSFTDVIVPYPTLSEISKRVAGSFYAPKLFSNKTRMLVRWLQKIG	failed
MIKLQLKLQGSVSVQVNAGPLAYARAFLDDTNTKRYPDNKVKLLKEVFRQFVEACGQALAVNERLIKEDQLEY	failed
MIKLSSITAHILDIWHRRNSRSYIAHLRSLGIRIGDGCIFRDPLTTRIDVSRPALVSIGSNVDMNTYFQILTHDWASFVFRNKYHDFVNSSGRVEIGSNIYIGTNVIVLRGVTIGDNCVIGAGSVVTHDIPANSVAVGAPCRVVCSLDEYYQKRKVKGLQEAVEHVKAFQKNFGRDPLPHELYEEFIYFVDASNVEEYERQGVPVRSQLSIAYGDWLSTHKAKFSSYDDFIQYVNQKMNETAES	failed
MIKQVNPHFKEFLFDWNQKFQFLVGGYGSSKSYHVALKIVLKLLREKRTALVIREVYDTHRDSTFSLFDELVSDLKLDHIVRCVSSPMQIRFSNGSRIIFKGMDKPAKLKSINNISLIWIEECSEVKYEGFKELLGRLRHPTLPLHMILSTNPVGEDNWTFKHFFKDDREKRFVLDDKELYEKRIIVSNDTYYHHSTADDNLFLPESYVQQLEELKEYDPDLYRIARKGHFGVNGIRVLPQFEERPHEEVMTAISNINRPLKRVGMDFGFVESYNAVVRVAVDHEKKYLYIYWEYYKNGLTDDKTAEELKEFAETKELIKADSAEPKTIRYFQQHGFNMVGARKYQGSRLQYTKKIKRFRKIICSDRCENTIYELKPLAYATDKLGNIIEDEFTIDPHTLSAIWYALDDYEVTDLKEESKGRPQRSRPGRR	not failed
MIKSSLPPILTSQIGPDSIELRLLVAADLEYFNGHFPEQAVLPGVTQLDWAVRLGCEHFGYSAAVANLEVLKFQQLILPGQEVTLVISHNATKEKLTFAYSDGDHRYASGRISFASKQDDGAAQ	failed
MIKVAESRTSWVASVFGLAALYVLGTVTPLEDIDSHLGGVNVTNLLQAIFALLAIFFFNDSVRRLANVPVVRWTYYAPLLSIPVMIASFSLIADKAPTAADFIDTRMDQLATAVYSGTYMFALLFTVLRIIYMLRHNAKGPYATFSAGLMVVAVAVSCHIAYVVLYYFSPWDDFARAIGTWFDRLFYIGLTVTAAGWLILFLSKQLPRLRLWMIDALWLTAMRMRVNADRSRVSPAWDLFNETLENGVYKSLIVLHNYERVNLMEFPESVQGRISHIEAKLDAQT	failed
MILATYFDGRTSRAQPVRLAVEQGEAVLFDPEGVPVRRAPLSALRVSERVKHAPRLVTFEDGAFCEIADPAEQQALNALLHRTGYREGAVVRAQNSWRLALGALALTLAALVLGYRYGLPWGAKVLAGMVPQRVEAQLGHASLAAFDQHWLEPSKLPQAQQARIRARFAALRAPDATHAYTIAFRDAGKLGANAFALPGGDIIVTDALVRLVGEGDGLMGVLAHEAGHVEYRHGLRQLIQSSAIGATAALLFGDISTILAGVPATMLTLRYSRDYERDADRYASRMLQSNGLSVAAFADVLQALEDSHGGARGTGSGAGRKEEDRDDASGFFSSHPLTRERIETLRRFDHTHGGSDAD	failed
MILDEKNRKNLVFLILQFFDEEGYEESLHLLEQDSGVFFDFSYLSNAILNGNWKDADDYLSAFTSPEANTFSRKMFFGLFKSGGSEAVKIFSKDLRRIPVLKDDSFDDLVEVIAETCCVDKAPGRAKLCVDLHKLAESNPSLRGKLDFPSLNKSALLALISLLCPNCSRRKGGLKEDLICLILQFLYEAKYKNTLHKLEQETKVFFNLNYLAEVMKLGEYGKAEEYLGAFTNWEDNKYSKAMFLELQKLICLQSTEWEVATPSGSLDNMSLKIKLHASVAMLAKKNPVLKDELKFPSMEKSRLLTLVKQTMDWWTCNNTSSLENVPVVSYLCGTPSSMKFFFKKTVPRKKKPNEIKDPSQCNALVLPDCFSEEKIARLTYSPSGDYILALAEDATHKLWTWSSSQNEFCKPRLHQPQSGKTMENEMATSVQKSTSCFAVKGSYLFSTSGGKIAVFDLKNFEKVASFGSPTPMATYFIFIPGDLLAVGLDDGSIFIHCLSSRKVKEKLEGHDQKITCLAFSRCFNVLVSSDSDGKLCLWSTKSWVKLTSKNSTRKFCNRSNLESTSLVTHIQFDPYQIELLVVHDGWIGLYEVRTLDCRLQWIPDASDPAITSATYSSDGEIIYVGFRCGSIKIVDSKTFMTLCQINLTSFTQLSTSNISLEVYPTVVAAHPSHPNQISAGLSNGKVIVLQPLWSGGWGEAAPLEDNGDYSNDSDHSY	failed
MILIRLEPGMDLMEEMRAAFSEGVVVTGIGSLHRVRIRTADESELTVEGPLEILSLQGTISPDGVHIHIAVADSEGRVTGGHLRGDSPVRTTAEIAVIPYQGVLRRVMDRRTGYRELLVLE	failed
MILKTLRNIFITIVVIAIIVIGGLFGLNAYSNQHPNNHSINDWNKLNPLAPTYEYYVKTQKPSKVEVVDKEKDFYIYHYNQTGYTKDGKSKKIEYTASKKLKQNHYLVVREKSHTIQSFEEVKKSKIPTKAKEKL	failed
MILLSVHDSFLLDHNLPSACDKVFERLLDVTNSSFGFIATLQEDEDGQSLYLPAISNLAWDEETLTWYRHQRRTHGGLRLRKLDNLFGHVVTHNTVVCTNSLLRQKAGRDLPPIHPALHSLLGIPITHNGKTVGMIALANRREGYDQTMIELEHHHHHH	failed
MILLTKITLLLFSSIFFSYILYMKSHSFKKIEPRKCSLNLMIIGMAFIVVGEFLNFISSFVKYRVDIYVSFCFILGAILFVIFAIIFLNSVDNTLKCLYGCVYEDAMTGVYNRNGIKKIFKDTINKEDNFFVMSFDLDETKIINDNFGHLVGDEYIISAARAIKEVLGAKGVVGRTGGDEFAAIYISTDQEELKKVKTHINKRASEIFNGSNINISMGFSTYKKDGKNMKELFDLADKRMYQDKKNKRKADQRF	failed
MILMSNEIKNPKKRRKLVEYANGRSLEEINGTVKVPKNIGFWKALFMYSGPGALVAVGYMDPGNWSTSITGGQNFQYMLMSIILISSLIAMLLQYMAAKLGIVSQMDLAQAIRARTSKSLGIVLWILTELAIMATDIAEVIGAAIALYLLFHIPLAIAVFITVLDVLLLLLLTKIGFRKIEAIVVCLIMVILVVFVYQVALSNPNWGAVFSGLVPTTKAFETSPTIGGMTPLSGSLGIIGATVMPHNLYLHSAVSQTREIDHNDEEDVARTLRFSTWDSNIQLSFAFIVNSLLLVMGVAVFKSGAVQDPSFFGLFHALNDTSTLSNGILIGVAKTGVLSTLFAVALLASGQNSTITGTLTGQVIMEGFIHMRMPLWARRLITRLISVVPVLICVMITSGKGDLQEHEALNQLMNNSQVFLAFALPFSMIPLLMMTDSRVEMGDRFKNSWAVKILGWISVIFLTYLNMTGLPNSITAFFGANPSAGEVELAHIIAYMLVAVVLALLAWTVFELHKGNQRYELEMRSKAEAKEEA	failed
MILNPQQRTKLDSRRDDLFYAAPRFVTHVDDFFLARLTDLYRQYLQPQMRVLDLMSSWVSHLPPELSFQEVVGHGMNAAELARNPRLDRYFVQNLNEELALPLEDASFNAVLMAVSVQYLQYPEATFTEIARILKPQGVVIVSFSNRMFFEKAIQAWREGSEGDRVQLVQTYINSTPSLKVIATHLPRLWPWRGFTDPFYAVVGQKQAVLEHHHHHH	not failed
MILNTEEYPISIGNEIKYTKEVYDCLQLLRLRTILKEYEVNLILDVGANEGQFASVLRDIGYVGTIISFEPLSKEYRLLSQAASKDSNWYTYNLALGKQNKEQILHVSDKSTFSSFLLSNSLCEQRFGKESIGDKNEVVSVRRLDNFLVEVVKNIDKMRIYLKMDTQGYDLEVFSGAGTLLKNIVALQSEVSVVPIYHSMPDMLYSISLFQEAGFSLSGMYPVTYVKPTLQVIEFDCLMVKADTKIS	failed
MILNVAGPLGNPAPMEKFGKILAIGAYVGIAEVYPIAKAWQEIGNDVTTLHVTFEPMVILKDYFEKAVSRHIVEPVKIDQEKSFQENTKNVTKALTAKVKELLDNENWDLVFMVGPPGDQKAVFEVVKKYGIPMKVDLHPIMLEHHHHHH	not failed
